B1: MYBL2 (parent)
chain: FSPSQFLNFWNKQDTLELESPSLT
B2: WDFY1 (parent)
chain: FWNIKQMWDTKTLGLRQHHCRKCG

Variants of: B1
Assay: protein stability index of a GFP-peptide fusion (GPS, HEK-293T) (PSI 1-6); higher = more stable
Settings: c terminus: a fixed tail appended
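Further: lentivirally expressed fusions sorted by FACS into six bins by GFP to DsRed ratio, PSI derived from sequencing read proportions per bin multiplied by bin number.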

Protein stability index of substitutions, site by site:
L16: R 4.02, D 3.85, Q 3.33, K 2.75, S 2.5, T 1.5, H 3.68, V 2.19, I 2.58, G 4.14, P 2.29, F 3.19, E 1.26, A 3.1, C 2.68, Y 3.49, M 2.56
T15: Q 1.82, E 2.4, M 3.12, S 4.29, W 3.33, D 2.09, H 3.8, I 2.92, R 2.54, Y 1.38, A 3.05, K 2.68, P 2.48, F 2.34, G 3.51, N 3, L 3.22, C 2.54
D14: R 4.08, H 2.39, P 2.98, M 2.63, A 2.94, S 1.31, V 3.22, Y 3.5, Q 2.89, C 4.04, F 3.92, K 4.25, L 2.6, G 2.94
P21: F 3.56, K 3.01, R 2.36, M 3.16, N 3.41, W 3.86, T 2.36, Q 2.56, L 3.37, S 2.09, Y 2.69, D 2.2, I 3.74, V 2.53, E 2.64, G 3.5, C 2.77
N11: E 2.73, R 2.48, D 3.14, L 3.89, Q 2.77, Y 3.26, G 2.56, S 2.99, A 1.4, T 2.79, F 2.14, I 2.5, C 4.67, P 2.51
S22: K 3.1, C 4.69, T 2.82, P 1.89, V 2.95, W 3, I 2.72, H 2.56, N 3.17, F 3.27, Y 2.61
E17: R 2.45, H 2.37, N 2.33, M 3.58, P 1.74, C 2.41, Q 3.02, K 2.48, I 3.94, S 3.58, V 3.59, Y 2.41, F 1.84, T 2.41, W 2.71, A 1.07, D 3.02, L 3.9
Q13: I 4.44, P 2.06, R 1.21, M 3.43, S 3.98, H 3.41, W 3.25, Y 3.56, F 2.17, N 3.24, V 2.94, D 3.51, A 3.54, T 2.4
T24: N 2.1, E 2.34, A 3.17, S 2.36, K 3.62, L 2.52, I 2.2, C 3.38, M 2.65, W 2.86, R 3.41, P 3.08, Y 2.73
L23: N 2.65, G 2.27, E 2.26, D 3.49, H 2.79, A 2.08, C 2.71, M 2.41, F 3.38, R 2.97, V 2.91, I 4.19, S 2.13
S20: P 1.65, D 2.62, R 2.26, G 2.84, C 2.08, Q 3.9, E 1.23, T 2.83, M 3.66, V 2.31, F 2.57, I 2.75, K 2.35, W 2.37, L 1.89
W10: Y 2.63, R 2.62, Q 3.5, V 1.89, S 2.91, T 2.98, N 3.38, P 3.45
K12: N 2.84, H 2.4, V 4.37, T 2.59, S 2.02, D 3.15, I 3.21, M 3.42, Y 3.78, R 2.52, P 3.55, F 2.97, G 4.46, A 2.9, Q 1.93, E 2.25
L18: I 2.61, E 3.1, N 1.98, R 2.95, P 2.1, S 1.84, Q 3.72, V 3.28, F 3.19, M 2.88, W 5.25, Y 3.16, D 2.79, G 2.58, K 2.98, H 1.77, C 2.55, T 3.04
E19: N 3.12, W 2.64, C 3.63, V 2.8, T 2.39, S 2.07, P 2.86, I 2.94, H 2.88, L 4.26, Y 2.11, G 1.66, D 3.09, F 2.58, A 2.63, R 2.75

Variants of: B2
Assay: as above
Settings: c terminus: a fixed tail appended

Protein stability index: each site, then its substitutions
Q17: K 1.99, D 1.63, P 2.13, A 1.6, C 2.13, T 2.12
D9: G 1.73, K 1.33, I 1.94, H 2.05
H18: I 2.01, Q 1.82, G 2.39, N 2.35, T 3.16
T12: Q 2.39, M 2.6
R21: L 1.67, A 2.03, S 2.16, N 1.83
L15: V 2.35, T 2.43
T10: L 2.23, N 2.04, Y 1.41, S 2.18
K22: N 1.99, P 1.98, L 1.34, M 1.03
G14: S 1.97, L 2.54, W 1.87
K5: Y 1.36, N 2.28, E 2.43, H 2.03, R 1.82, Q 2.03, V 1.69, I 2.15
W8: H 2.24, V 2.15, K 2.18, T 2.52, P 2.73, I 1.75
Q6: W 1.79, M 2.06, I 2.45, V 2.5
C20: R 2.4, Y 2.23, I 2.17, A 1.82
I4: L 1.74, H 2.56, M 2.35, Q 3.12, T 2.14, E 3.05
C23: P 2.19, M 2.6, I 1.93, L 2.81
R16: I 1.43, C 1.59, V 1.88, E 2.3, W 1.14, Q 1.94, S 2.21, A 1.45, Y 1.6
K11: V 1.97, H 1.8, E 3.03, F 1.92, D 2.37, R 1.27, M 1.94, C 1.87
G24: V 2.01, L 2.22
M7: I 2.15, D 2.54
H19: P 2.66, G 1.63, N 2.23, I 2, W 1.66
W2: M 2.32, T 1.67, D 2.19, L 2.47, F 2.55, C 1.14
F1: L 1.62, I 1.91, E 2.61, G 2.3, T 2.28, M 2.98, Q 2.31
L13: C 2.57, K 2.08, P 2.22
N3: W 2.85, V 1.27, H 1.85, G 2.17

Reference: the supplement of paper PMC10567573
